Results published in patent US20120231013A1 (Amgen, published 2012).
“And” between values parts separate entries of the source, which are not always exact repeats. Equal entries are not always repeated.

B1: LRP-1 peptide LA24 (peptide)
chain: not shown
notes: Tags implied (Ni-NTA, anti-HA detection), not described
B2: LRP-1 peptide LA25-26 (peptide)
chain: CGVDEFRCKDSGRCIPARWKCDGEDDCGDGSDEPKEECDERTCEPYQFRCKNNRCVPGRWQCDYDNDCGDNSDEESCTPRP
B3: LRP-1 peptide LA5-6 (peptide)
chain: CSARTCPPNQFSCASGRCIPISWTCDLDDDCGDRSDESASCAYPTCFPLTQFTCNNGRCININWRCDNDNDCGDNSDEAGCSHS
notes: as for B1
B4: LRP-1 peptide LA8-10 (peptide)
chain: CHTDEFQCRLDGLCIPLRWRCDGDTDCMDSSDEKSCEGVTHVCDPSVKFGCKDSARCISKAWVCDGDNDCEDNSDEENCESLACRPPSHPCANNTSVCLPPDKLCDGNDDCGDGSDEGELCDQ
notes: The end 1184 is inferred from the end of Cluster II; Tags implied, not described
B5: LRP-1 peptide LA4 (peptide)
chain: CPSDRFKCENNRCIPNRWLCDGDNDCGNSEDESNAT
notes: as for B1
B6: LRP-1 peptide LA15-17 (peptide)
chain: CPLNYFACPSGRCIPMSWTCDKEDDCEHGEDETHCNKFCSEAQFECQNHRCISKQWLCDGSDDCGDGSDEAAHCEGKTCGPSSFSCPGTHVCVPERWLCDGDKDCADGADESIAAGCLYNST
notes: The end 2817 is inferred from the end of LA17
B7: LRP-1 peptide LA15 (peptide)
chain: not shown
notes: The end 2733 is inferred from the start of LA16 (2734)
B8: LRP-1 peptide LA25 (peptide)
chain: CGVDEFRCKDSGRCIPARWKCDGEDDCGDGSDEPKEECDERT
notes: as for B1
B9: LRP-1 peptide LA24-25 (peptide)
chain: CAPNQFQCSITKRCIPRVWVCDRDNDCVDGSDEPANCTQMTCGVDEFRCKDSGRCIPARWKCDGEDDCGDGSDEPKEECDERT
notes: as for B1
B10: LRP-1 peptide LA3-4 (peptide)
chain: not shown
notes: as for B1

Columns and labels:
[1] = biological target: T1, recombinant TIMP-3 (human or mouse; Table 2 does not say which); experiment: binding ELISA, Assay 2
T1 construct: The methods say 'human or mouse TIMP-3'

[2] = biological target: T1, recombinant TIMP-3 (human or mouse; …); experiment: binding ELISA, Assay 3
recombinant human TIMP-3 [3] = biological target: T2, recombinant human TIMP-3 (human, UniProt P35625 24-211); experiment: cell-based or functional assay
T2 sequence (looked up): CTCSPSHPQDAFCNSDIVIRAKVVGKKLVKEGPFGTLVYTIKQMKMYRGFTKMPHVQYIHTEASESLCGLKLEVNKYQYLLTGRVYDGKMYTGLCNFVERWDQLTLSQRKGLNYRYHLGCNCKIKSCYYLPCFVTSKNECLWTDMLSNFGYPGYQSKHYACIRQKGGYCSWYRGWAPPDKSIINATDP

MMP-13 = MMP-13 (UniProt P45452 20-471, limits assumed); experiment: cell-based or functional assay
recombinant human TIMP-3 [4] = biological target: T2, recombinant human TIMP-3; experiment: direct ELISA, coated huTIMP-3
Procedure: (§1) After incubation, the coating solution is removed and replaced with 250 microL/well of blocking buffer (1% BSA, TBS [pH 7.5], 1 mM CaCl₂) and incubated with shaking for 1 hour at room temperature. The plates are then washed three times with 200 microL/well with wash buffer 1 (TBS [pH 7.5], 1 mM CaCl₂). The LRP-1 peptides are titrated in assay buffer (0.1% BSA, TBS [pH 7.5], 1 mM CaCl₂, 0.02% Tween-20) in a separate polypropylene non-treated round-bottom 96-well plate (BD Falcon™) starting at 1 microM concentration and then diluted serially 4-fold for 8-points, with the last point buffer only. Then 100 microL/well of the diluted LRP-1 peptide titration is added to the TIMP-3 coated plate and allowed to bind for 1.5 hour at room temperature with shaking. After incubation, the plate is washed three times with 200 microL/well of wash buffer 2 (TBS [pH 7.5], 1 mM CaCl₂, 0.02% Tween-20). […] The assay plate is then washed three times with 200 microL/well with wash buffer 2. The plate is developed by adding 100 microL/well of 1:1 mixture of TMB and H₂O₂ (Pierce, Fisher Thermo Scientific, Rockford Il.), the reaction is stopped by adding 100 microL/well 2NH₂SO₄ (VWR), and read on a SpectraMax microplate reader (Molecular Devices, Sunnyvale, Calif.) at OD450 nm using SOFTmax Pro software version 3.1.2. Data is analyzed using GraphPad Prism 4.01 software. Binding of LRP-1 peptides to TIMP-3 is expressed as binding EC50.

recombinant mouse TIMP-3 = biological target: T3, recombinant mouse TIMP-3 (mouse, UniProt P39876 24-211); experiment: direct ELISA, coated muTIMP-3
T3 construct: also called MuTIMP-3
T3 sequence (looked up): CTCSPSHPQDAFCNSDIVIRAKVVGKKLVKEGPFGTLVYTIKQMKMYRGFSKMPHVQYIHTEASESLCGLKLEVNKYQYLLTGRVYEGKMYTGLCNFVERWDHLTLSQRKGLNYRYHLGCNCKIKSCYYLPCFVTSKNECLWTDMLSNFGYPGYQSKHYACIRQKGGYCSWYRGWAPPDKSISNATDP
Procedure: as §1

[5] = biological target: T1, recombinant TIMP-3 (human or mouse; …); experiment: AlphaScreen, biotinylated TIMP-3, Assay 1
Procedure: (§2) Peptides were also evaluated by AlphaScreen® (Amplified Luminescent Proximity Homogeneous Assay; PerkinElmer, Waltham, Mass.) a very sensitive non-radioactive homogeneous assay technology that allows the screening of a large range of biological interactions and activities, substantially according to the manufacturer's instructions. Briefly, all dilutions are made in AlphaScreen® Buffer: [40 mM HEPES pH 7.5, 100 mM NaCl, 1 mM CaCl2, 0.1% BSA, 0.05% Tween-20]. The LRP-1 peptides are titrated in a separate polypropylene 96-well plate (Falcon) starting at 4 microM concentration and then diluted serially 3-fold for 12-points, with the last point buffer only. First 2 microL/well of protein titration curve is added to white, small volume, 384-well assay plate (Greiner Bio-One, Stonehouse, UK) in duplicate. Next, 2 microL of biotinylated (AFS, in-house conjmicroGation) recombinant human or mouse TIMP-3, is added at 12 nM (or 3 nM final assay concentration) to the assay plate. Lastly, in subdued light 4 microL of a mixture of streptavidin donor beads, anti-mouse IgG acceptor beads (PerkinElmer) both diluted to 20 microG/mL (10 microG/mL final assay concentration) and 2 nM (1 nM final concentration) rat-anti-HA (clone3F10)-HRP (Roche Diagnostics) is added to the plates. Plates containing 8 microL final assay volme are covered with TopSeal A (to prevent evaporation), spun quickly at 1000 rpm, and incubated overnight (covered with foil to prevent light exposure) before reading on Fusion plate reader (PerkinElmer) using AlphaScreen® parameters (excitation 680 nm and emission 520-620 nm). Data is analyzed using GraphPad Prism 4.01 software. Binding to TIMP-3 is reported as total signal (cps).

[6] = biological target: T1, recombinant TIMP-3 (human or mouse; …); experiment: AlphaScreen, biotinylated TIMP-3, Assay 2
Procedure: as §2

recombinant human TIMP-3 [7] = biological target: T2, recombinant human TIMP-3; experiment: indirect ELISA, huTIMP-3 captured by anti-TIMP-3 clone 277128
Procedure: Then 100 microL/well of the diluted LRP-1 peptide titration is added to the TIMP-3 coated plate and allowed to bind for 1.5 hour at room temperature with shaking. After incubation, the plate is washed three times with 200 microL/well of wash buffer 2 (TBS [pH 7.5], 1 mM CaCl₂, 0.02% Tween-20). […] The assay plate is then washed three times with 200 microL/well with wash buffer 2. The plate is developed by adding 100 microL/well of 1:1 mixture of TMB and H₂O₂ (Pierce, Fisher Thermo Scientific, Rockford Il.), the reaction is stopped by adding 100 microL/well 2NH₂SO₄ (VWR), and read on a SpectraMax microplate reader (Molecular Devices, Sunnyvale, Calif.) at OD450 nm using SOFTmax Pro software version 3.1.2. Data is analyzed using GraphPad Prism 4.01 software. Binding of LRP-1 peptides to TIMP-3 is expressed as binding EC50.
After incubation, the plate contents are discarded and 250 microL/well of blocking buffer (1% BSA, TBS [pH 7.5], 1 mM CaCl₂) is added to the plate which is incubated with shaking for 1 hour at room temperature. The plate is then washed three times with 200 microL/well with wash buffer 1 (TBS [pH 7.5], 1 mM CaCl₂) followed by the addition of 100 microL of 20 nM recombinant human TIMP-3. The plate is incubated at room temperature for 1 hour. The LRP-1 peptides are titrated as described previously, and 100 microL/well of the diluted LRP-1 peptide titration is added to the TIMP-3 coated plate and allowed to bind for 1.5 hour at room temperature with shaking. After incubation, the plate is washed and the ELISA performed substantially as described previously for the direct binding ELISA.

[8] = biological target: T1, recombinant TIMP-3 (human or mouse; …); experiment: binding ELISA, Assay 1

Binder | EC50 [1] | EC50 [2] | % of the inhibitory activity of TIMP-3 + peptide compared to TIMP-3 alone, 16 nM (recombinant human TIMP-3 [3]) | % of the inhibitory activity of TIMP-3 + peptide compared to TIMP-3 alone, 80 nM (recombinant human TIMP-3 [3]) | % of the inhibitory activity of TIMP-3 + peptide compared to TIMP-3 alone, 2000 nM (recombinant human TIMP-3 [3]) | Direct Inhibition of MMP13 (% decrease), 1000 nM (MMP-13) | EC50 (recombinant human TIMP-3 [4]) | EC50 (recombinant mouse TIMP-3) | total signal (cps) [5] | total signal (cps) [6] | EC50 (recombinant human TIMP-3 [7]) | % of the inhibitory activity of TIMP-3 + peptide compared to TIMP-3 alone, 400 nM (recombinant human TIMP-3 [3]) | binding result (recombinant mouse TIMP-3) | EC50 [8]
B1 | ~500 nM | ~1000 nM | 104% | 104% | 81% | -22% | 68 nM | 66 nM | 2200 cps | 2000 cps | 10 nM | – | – | –
B2 | 673 nM | – | 97% | 101% | 101% | – | 167 nM and 99 nM | 117 nM and 80 nM | 20000 cps | 5000 cps | 41 nM and 20 nM | 105% | – | –
B3 | 400 nM | 512 nM | 97% | 80% | 65% | 16% | – | 332 nM | 6000 cps | 4000 cps | 78 nM | 72% | – | –
B4 | – | 657 nM and 1040 nM | 94% | 89% | 93% | -6% | – | 696 nM | 110000 cps | 100000 cps | 219 nM | 84% | – | –
B5 | 900 nM | ~3000 nM | – | – | – | – | – | – | 2200 cps | 2000 cps | – | – | no binding (tested: titration from 1 microM) | –
B6 | – | 191 nM | 95% | 82% | 91% | – | 510 nM | 306 nM | 90000 cps | 70000 cps | 100 nM | 83% | – | 193 nM
B7 | ~5000 nM | ~1500 nM | 104% | 95% | 58% | 61% | 901 nM | – | 2200 cps | 2000 cps | 378 nM | 67% | – | –
B8 | 1220 nM | ~1000 nM | 96% | 95% | 94% | – | 742 nM | – | 5000 cps | 2000 cps | 447 nM | 94% | – | –
B9 | 211 nM | 436 nM | 90% | 88% | 92% | – | 162 nM | 124 nM | 290000 cps | 130000 cps | 32 nM | 87% | – | –
B10 | 289 nM | 500 nM | 104% | – | 91% | – | 226 nM | 155 nM | 9000 cps | 3500 cps | 81 nM | 84% | – | –
